What is called Ki is a dissociation constant, usually derived from enzyme kinetics or from competition with a known ligand. Lower therefore signals tighter binding.

Assay [1] deals with human melanocortin-4 receptor (human) (UniProt P32245). The assay is described as follows: cell-based or functional assay.
The target is the same in assay [2]. The assay is described as follows: [I125]-NDP-α-MSH competition, hMC4-R HEK-293 membranes.

Chain of human melanocortin-4 receptor (human) (P32245 whole entry): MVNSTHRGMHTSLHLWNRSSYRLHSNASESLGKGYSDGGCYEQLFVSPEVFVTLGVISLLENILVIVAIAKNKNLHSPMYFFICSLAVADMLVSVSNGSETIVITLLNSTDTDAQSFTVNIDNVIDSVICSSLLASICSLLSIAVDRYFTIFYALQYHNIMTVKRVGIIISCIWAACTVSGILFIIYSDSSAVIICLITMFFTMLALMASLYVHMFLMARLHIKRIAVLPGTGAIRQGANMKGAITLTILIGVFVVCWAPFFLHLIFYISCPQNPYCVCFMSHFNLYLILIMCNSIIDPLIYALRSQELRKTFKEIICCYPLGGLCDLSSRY

In assay [1], “Ac-Arg-cyclo(Glu-Dab-D-Phe(2,4-diMe)-Arg-Trp-Orn)-NH2 (peptide)” gave an EC50, cAMP, 10 ng/mL Doxycycline of 0.5 nM; an Intrinsic Activity, cAMP, 0.1 ng/mL Doxycycline of 8%; an Intrinsic Activity, cAMP, 10 ng/mL Doxycycline of 97%. In assay [2], this substance came in with a Ki of 0.085 nM.

In assay [1], “Ac-Arg-cyclo(Glu-Dab-D-Phe(2-CF3)-Arg-Trp-Orn)-NH2 (peptide)” returned an EC50, cAMP, 0.1 ng/mL Doxycycline of 0.125 nM; an EC50, cAMP, 10 ng/mL Doxycycline of 0.06 nM; an Intrinsic Activity, cAMP, 0.1 ng/mL Doxycycline of 85%; an Intrinsic Activity, cAMP, 10 ng/mL Doxycycline of 96%. The Ki in assay [2] stood at 0.6 nM.

Regarding “Ac-Arg-cyclo(Glu-Dab-D-Phe(2-CN)-Arg-Trp-Orn)-NH2 (peptide)”, in assay [1], the EC50, cAMP, 0.1 ng/mL Doxycycline amounted to 34 nM; the EC50, cAMP, 10 ng/mL Doxycycline was 0.5 nM; the Intrinsic Activity, cAMP, 0.1 ng/mL Doxycycline is 64%; the Intrinsic Activity, cAMP, 10 ng/mL Doxycycline came out at 97%. Also, the Ki in assay [2] came to 45 nM.

“Ac-Arg-cyclo(Glu-Dab-D-Phe(2-Me)-Arg-Trp-Orn)-NH2 (peptide)”: in assay [1], the EC50, cAMP, 0.1 ng/mL Doxycycline is 0.14 nM; the EC50, cAMP, 10 ng/mL Doxycycline worked out at 0.085 nM; the Intrinsic Activity, cAMP, 0.1 ng/mL Doxycycline is 83%; the Intrinsic Activity, cAMP, 10 ng/mL Doxycycline was determined as 97%. The same substance showed a Ki in assay [2] of 0.5 nM.

Turning to “Ac-Arg-cyclo(Glu-Dab-D-Phe(2-NO2)-Arg-Trp-Orn)-NH2 (peptide)”, in assay [1], the EC50, cAMP, 10 ng/mL Doxycycline was found to be 0.2 nM; the Intrinsic Activity, cAMP, 0.1 ng/mL Doxycycline worked out at 78%; the Intrinsic Activity, cAMP, 10 ng/mL Doxycycline worked out at 93%. The substance also displayed a Ki in assay [2] of 11 nM.

As for “Ac-Arg-cyclo(Glu-Dab-D-Phe(3,4,5-triF)-Arg-Trp-Orn)-NH2 (peptide)”, in assay [1], the EC50, cAMP, 0.1 ng/mL Doxycycline was 0.7 nM; the EC50, cAMP, 10 ng/mL Doxycycline was determined as 0.33 nM; the Intrinsic Activity, cAMP, 0.1 ng/mL Doxycycline was 37%; the Intrinsic Activity, cAMP, 10 ng/mL Doxycycline turned out to be 97%. The same substance registered an inhibition constant (Ki) in assay [2] of 0.667 nM.

In assay [1], “Ac-Arg-cyclo(Glu-Dab-D-Phe(3,4-diF)-Arg-Trp-Orn)-NH2 (peptide)” returned an EC50, cAMP, 0.1 ng/mL Doxycycline of 0.125 nM; an EC50, cAMP, 10 ng/mL Doxycycline of 0.12 nM; an Intrinsic Activity, cAMP, 0.1 ng/mL Doxycycline of 74%; an Intrinsic Activity, cAMP, 10 ng/mL Doxycycline of 90%. Further, in assay [2], the Ki was determined as 0.3 nM.

Turning to “Ac-Arg-cyclo(Glu-Dab-D-Phe(3,4-diOMe)-Arg-Trp-Orn)-NH2 (peptide)”, in assay [1], the EC50, cAMP, 0.1 ng/mL Doxycycline is 75 nM; the EC50, cAMP, 10 ng/mL Doxycycline stood at 2 nM; the Intrinsic Activity, cAMP, 0.1 ng/mL Doxycycline was determined as 23%; the Intrinsic Activity, cAMP, 10 ng/mL Doxycycline turned out to be 94%.

In assay [1], “Ac-Arg-cyclo(Glu-Dab-D-Phe(3,5-diF)-Arg-Trp-Orn)-NH2 (peptide)” yielded an EC50, cAMP, 0.1 ng/mL Doxycycline of 0.95 nM; an EC50, cAMP, 10 ng/mL Doxycycline of 0.12 nM; an Intrinsic Activity, cAMP, 0.1 ng/mL Doxycycline of 64%; an Intrinsic Activity, cAMP, 10 ng/mL Doxycycline of 95%. The substance also registered a Ki in assay [2] of 2 nM.

As to “Ac-Arg-cyclo(Glu-Dab-D-Phe(3-Me)-Arg-Trp-Orn)-NH2 (peptide)”, in assay [1], the EC50, cAMP, 0.1 ng/mL Doxycycline worked out at 0.42 nM; the EC50, cAMP, 10 ng/mL Doxycycline stood at 0.22 nM; the Intrinsic Activity, cAMP, 0.1 ng/mL Doxycycline came out at 35%; the Intrinsic Activity, cAMP, 10 ng/mL Doxycycline was found to be 97%. Besides, the Ki in assay [2] was 0.4 nM.

In the case of “Ac-Arg-cyclo(Glu-Dab-D-Phe(3-NO2)-Arg-Trp-Orn)-NH2 (peptide)”, in assay [1], the EC50, cAMP, 0.1 ng/mL Doxycycline turned out to be 2 nM; the EC50, cAMP, 10 ng/mL Doxycycline was 0.55 nM; the Intrinsic Activity, cAMP, 0.1 ng/mL Doxycycline stood at 17%; the Intrinsic Activity, cAMP, 10 ng/mL Doxycycline was 95%. For the same substance, in assay [2], the Ki came to 0.7 nM.

In assay [1], “Ac-Arg-cyclo(Glu-Dab-D-Phe(3-OMe)-Arg-Trp-Orn)-NH2 (peptide)” had an EC50, cAMP, 0.1 ng/mL Doxycycline of 1 nM; an EC50, cAMP, 10 ng/mL Doxycycline of 0.065 nM; an Intrinsic Activity, cAMP, 0.1 ng/mL Doxycycline of 64%; an Intrinsic Activity, cAMP, 10 ng/mL Doxycycline of 100%.

For the origin of these results see patent US20100311648A1.
